# Data published in patent publication US20080153130.
# T1: UBI::KALA hybrid protein substrate (ubiquitin fused to the 18-amino-acid KALA peptide)
# T1 chain: DPGDKDGDGYISAAEAMA
# B1: UBP1ΔC2 protease (UBP1 truncated by 98 N-terminal amino acids, mutation C Gln754Leu, six histidine residues at its C-end) (protein)
# chain: GGFIAGLVNDGNTCFMNSVLQSLASSRELMEFLDNNVIRTYEEIEQNEHNEEGNGQESAQDEATHKKNTRKGGKVYGKHKKKLNRKSSSKEDEEKSQEPDITFSVALRDLLSALNAKYYRDKPYFKTNSLLKAMSKSPRKNILLGYDQEDAQEFFQNILAELESNVKSLNTEKLDTTPVAKSELPDDALVGQLNLGEVGTVYIPTEQIDPNSILHDKSIQNFTPFKLMTPLDGITAERIGCLQCGENGGIRYSVFSGLSLNLPNENIGSTLKLSQLLSDWSKPEIIEGVECNRCALTAAHSHLFGQLKEFEKKPEGSIPEKPINAVKDRVHQIEEVLAKPVIDDEDYKKLHTANMVRKCSKSKQILISRPPPLLSIHINRSVFDPRTYMIRKNNSKVLFKSRLNLAPWCCDINEINLDARLPMSKKEKAAQQDSSEDENIGGEYYTKLHERFEQEFEDSEEEKEYDDAEGNYASHYNHTKDISNYDPLNGEVDGVTSDDEDEYIEETDALGNTIKKRIIEHSDVENENVKDNEELQEIDNVSLDEPKINVEDQLETSSDEEDVIPAPPINYARSFSTVPATPLTYSLRSVIVHYGTHNYGHYIAFRKYRGCWWRISDETVYVVDEAEVLSTPGVFMLFYEYDFDEETGKMKDDLEAILSNNEEDDEKEQEQKGVQEPKESQEQGEGEEQEEGQEQMKFERTEDHRDISGKDVNGSHHHHHH
# B2: UBP1ΔC protease (UBP1 deletion mutant with mutation C at position 754) (protein)
# chain: GGDHLNYIVESVSEMTTNFRNNNSLSRWLPRSKFTHLDEEILKRGGFIAGLVNDGNTCFMNSVLQSLASSRELMEFLDNNVIRTYEEIEQNEHNEEGNGQESAQDEATHKKNTRKGGKVYGKHKKKLNRKSSSKEDEEKSQEPDITFSVALRDLLSALNAKYYRDKPYFKTNSLLKAMSKSPRKNILLGYDQEDAQEFFQNILAELESNVKSLNTEKLDTTPVAKSELPDDALVGQLNLGEVGTVYIPTEQIDPNSILHDKSIQNFTPFKLMTPLDGITAERIGCLQCGENGGIRYSVFSGLSLNLPNENIGSTLKLSQLLSDWSKPEIIEGVECNRCALTAAHSHLFGQLKEFEKKPEGSIPEKPINAVKDRVHQIEEVLAKPVIDDEDYKKLHTANMVRKCSKSKQILISRPPPLLSIHINRSVFDPRTYMIRKNNSKVLFKSRLNLAPWCCDINEINLDARLPMSKKEKAAQQDSSEDENIGGEYYTKLHERFEQEFEDSEEEKEYDDAEGNYASHYNHTKDISNYDPLNGEVDGVTSDDEDEYIEETDALGNTIKKRIIEHSDVENENVKDNEELQEIDNVSLDEPKINVEDQLETSSDEEDVIPAPPINYARSFSTVPATPLTYSLRSVIVHYGTHNYGHYIAFRKYRGCWWRISDETVYVVDEAEVLSTPGVFMLFYEYDFDEETGKMKDDLEAILSNNEEDDEKEQEQKGVQEPKESQEQGEGEEQEEGQEQMKFERTEDHRDISGKDVNGSHHHHHH
# Experiments:
# [1] = molecular target: T1, UBI::KALA hybrid protein substrate …
# [2] = molecular target: His6UBI::ElisaC hybrid protein (six histidines, ubiquitin and the C-terminal fragment of UBP1ΔC protease)
Protein,"proteolytic activity (cleavage of ubiquitin from the hybrid substrate, SDS-PAGE image analysis), fold over UBP1ΔC [1]","preparative digestion of the hybrid protein, then Ni-NTA chromatography and SDS-PAGE [2]","proteolytic activity (cleavage of ubiquitin from the hybrid substrate, SDS-PAGE image analysis), fold over UBP1ΔC [2]","proteolytic activity (cleavage of ubiquitin from the hybrid substrate, SDS-PAGE image analysis), reference enzyme [1]","proteolytic activity (cleavage of ubiquitin from the hybrid substrate, SDS-PAGE image analysis), reference enzyme [2]"
B1,the enzyme UBP1ΔC2 is 5-6 times more active than mutant UBP1 AC,"High purity ElisaC protein was obtained, cleaved from 6HisUBI",the enzyme UBP1ΔC2 is 5-6 times more active than mutant UBP1 AC,–,–
B2,–,–,–,the enzyme UBP1ΔC2 is 5-6 times more active than mutant UBP1 AC,the enzyme UBP1ΔC2 is 5-6 times more active than mutant UBP1 AC
